Values of other authors as cited in publication PMC11178655, “Dosimetry and pharmacokinetics of [^177Lu]Lu-satoreotide tetraxetan in patients with progressive neuroendocrine tumours” (European Journal of Nuclear Medicine and Molecular Imaging, 2024).

What was measured:
[1] = in vivo; cited from earlier work
Excerpt: In addition, consistent with their specific binding to SSTR, both [^177Lu]Lu-satoreotide tetraxetan and [^177Lu]Lu-DOTA-TATE predominantly show uptake in tumours, followed by the kidneys, spleen, and liver.

patients with NETs = conditions: human, in vivo; cited from earlier work
Excerpt: In the present study, we observed tumour ADCs of 5.0 Gy/GBq after cycle 1 and 4.0 Gy/GBq after cycle 3. These tumour ADCs are consistent with previously reported findings from a direct comparison of [^177Lu]Lu-satoreotide tetraxetan and [^177Lu]Lu-DOTA-TATE in the same tumours and patients in a cross-over design, which reported median tumour dose of [^177Lu]Lu-satoreotide tetraxetan of 7.0 Gy/GBq (range: 4.2–29 Gy/GBq), 3.5 times greater than the median tumour dose of [^177Lu]Lu-DOTA-TATE [22]. However, it should be noted that median tumour dose in this pilot study was calculated from a limi ... || The median ADC of [^177Lu]Lu-satoreotide tetraxetan for the bone marrow using a blood-based approach was lower than reported in other [^177Lu]Lu-satoreotide tetraxetan studies. The result is, however, similar to the mean blood-based radiation ADCs for the bone marrow reported for [^177Lu]Lu-DOTA-TATE [32].

## [^177Lu]Lu-DOTA-TATE
[1]
  Mean terminal blood half-life: 72 h
Patients with NETs
  Blood-based bone marrow ADC: ≤ 0.02 Gy/GBq
  Image-based bone marrow ADC: up to 0.06 Gy/GBq
  Median absorbed dose to the tumour: 4.6 Gy/GBq
